Assay results taken from patent US20040081655A1, “Methods and compositions comprising polycationic compounds” (priority 2001, published 2004).
No end group written: not given here.

Columns and labels:
[1] = Depot formation at the injection site at day 4, labelled TRP-2 peptide/pR60/CpG-ODN (Example 3); format: in vivo, Mice C57Bl/6; conditions: injected either alone or in combination with CpG-ODN-Cy5
Method: On day 0 mice were injected subcutaneously into the right flank with a total volume of […] containing the above mentioned compounds. Animals were sacrificed at day 4 after injection and photos were taken from the injection sites (FIG. 3).

[2] = FACS analyses of lymphoid and non-lymphoid tissues for CpG-ODN-Cy5 (Example 2b); parameters: species or system Mice C57B1/6; conditions: mouse, in vivo, sc
Method: Mice were injected subcutaneously into the right flank with a total volume of 100 μl containing the above mentioned compounds. One day after injection, mice were sacrificed and FACS-analyses were performed from secondary lymphoid organs (draining lymph node, spleen) as well as non-lymphoid tissues (lung, liver, kidney, heart) (FIG. 2b).

[3] = Depot formation at the injection site, fluorescence-labelled compounds, photos (Example 2a); parameters: species or system Mice C57Bl/6; conditions: mouse, in vivo, sc
Method: On day 0 mice were injected subcutaneously into the right flank with a total volume of 100 μl containing the above mentioned compounds. Animals were sacrificed at the indicated time points after injection and photos were taken from the injection sites (FIG. 2a).

Row | Substance | presence of the labelled peptide at the injection site [1] | CpG-ODN-Cy5 in secondary lymphoid organs and non-lymphoid tissues (FACS) [2] | distribution of CpG-ODN-Cy5 after injection [3]
1 | TRP-2181-188-peptide-FITC: FITC-labeled TRP-2-Peptide (VYDFFVWL), MHC class I (H-2 Kb) restricted epitope of mouse tyrosinase related protein-2 (also: FITC label, site not given here) | not detectable at the injection site at day 4 |  | 
2 | CpG-ODN-Cy5: phosphothioate-modified, Cy5-labeled oligodinucleotides containing a CpG motif: tcc atg acg ttc ctg atg ct (DNA TCCATGACGTTCCTGATGCT; DNA, all phosphorothioate, methylation of C not given here; Cy5 label) |  | detectable in secondary lymphoid organs (draining lymph node, spleen) and non-lymphoid tissues (lung, liver, kidney, heart) | distribution of CpG-ODN-Cy5 all over the skin
